The values that follow come from patent US8586031B2, “Method of reusing rinse water from disinfecting packages with peracid and catalase” (Ecolab USA Inc., priority 2008, dated 2013).

A short description of this experiment: Decomposition of hydrogen peroxide by catalase in about 20,000 ppm acetic acid and 500-800 ppm hydrogen peroxide at 60° C., thiosulfate titration. Format: biochemical. The procedure:
Example 1 compared the ability to various catalase enzymes at 100 ppm concentration to decompose hydrogen peroxide. For this example, an aliquot of a stock solution of catalase was added to 1000 ml of a solution containing about 20,000 ppm acetic acid and 500-800 ppm of hydrogen peroxide at 60° C. The catalase addition was done at a rate that produced an enzyme concentration of 100 ppm in the 1000 ml solution The concentration of the hydrogen peroxide was measured at time zero and at 5, 10, and 15 minutes. The concentration of hydrogen peroxide was measured via titration of a 10 ml aliquot of solution including 1-2 ml of […], 1-2 ml concentrated sulfuric acid, 4-5 drops of an oxygen catalyst (saturated solution of Ammonium Molybdate) and a few drops of a starch solution. The titrant was 0.1 N Sodium thio sulfate. The solution was titrated to a colorless endpoint and the peroxide concentration was calculated via the following calculation:
Example 2 compared the ability to various catalase enzymes at 20 ppm concentration to decompose hydrogen peroxide. For this example, 20 ppm of catalase enzyme was diluted in 20,000 ppm acetic acid and 500-800 ppm of hydrogen peroxide at 60° C. The concentration of the hydrogen peroxide was measured at time zero and at 5, 10, and 15 minutes in the same manner as outlined in example 1.

B1: Bovine Catalase: crystaline bovine liver catalase, Sigma Aldrich (protein, UniProt P00432 2-527, looked up)
Catalase: ADNRDPASDQMKHWKEQRAAQKPDVLTTGGGNPVGDKLNSLTVGPRGPLLVQDVVFTDEMAHFDRERIPERVVHAKGAGAFGYFEVTHDITRYSKAKVFEHIGKRTPIAVRFSTVAGESGSADTVRDPRGFAVKFYTEDGNWDLVGNNTPIFFIRDALLFPSFIHSQKRNPQTHLKDPDMVWDFWSLRPESLHQVSFLFSDRGIPDGHRHMNGYGSHTFKLVNANGEAVYCKFHYKTDQGIKNLSVEDAARLAHEDPDYGLRDLFNAIATGNYPSWTLYIQVMTFSEAEIFPFNPFDLTKVWPHGDYPLIPVGKLVLNRNPVNYFAEVEQLAFDPSNMPPGIEPSPDKMLQGRLFAYPDTHRHRLGPNYLQIPVNCPYRARVANYQRDGPMCMMDNQGGAPNYYPNSFSAPEHQPSALEHRTHFSGDVQRFNSANDDNVTQVRTFYLKVLNEEQRKRLCENIAGHLKDAQLFIQKKAVKNFSDVHPEYGSRIQALLDKYNEEKPKNAVHTYVQHGSHLSAREKANL
Take B1: where the note is “20 ppm catalase”, the “decrease of the concentration of hydrogen peroxide” value is “did not measurably decrease”. The “Hydrogen Peroxide Concentration” value runs as follows: (20 ppm catalase, 0 minutes) 600 ppm; (20 ppm catalase, 5 minutes) 600 ppm; (20 ppm catalase, 10 minutes) 600 ppm; (20 ppm catalase, 15 minutes) 600 ppm; (100 ppm catalase, 0 minutes) 581.4 ppm; (100 ppm catalase, 5 minutes) 564.4 ppm. Further, the “Hydrogen Peroxide Concentration” value is, setting by setting: (100 ppm catalase, 10 minutes) 561 ppm; (100 ppm catalase, 15 minutes) 552.5 ppm. Besides, under “100 ppm catalase, 0 to 15 minutes”, the “decreased the concentration of hydrogen peroxide by” value came to 28.9 ppm.
